Measurements taken from article PMC5078793.

Target: LTBP-1 C-terminal region (UniProt Q14766)
Experiment: SPR; Biacore; LTBP-1 C-terminal region immobilised by amine coupling on CM5 (methods); 10 mM HEPES pH 7.4, 0.1 M NaCl, 0.5 mM CaCl2, 0.005% P20

Sequence of LTBP-1 C-terminal region (Q14766 24-1721): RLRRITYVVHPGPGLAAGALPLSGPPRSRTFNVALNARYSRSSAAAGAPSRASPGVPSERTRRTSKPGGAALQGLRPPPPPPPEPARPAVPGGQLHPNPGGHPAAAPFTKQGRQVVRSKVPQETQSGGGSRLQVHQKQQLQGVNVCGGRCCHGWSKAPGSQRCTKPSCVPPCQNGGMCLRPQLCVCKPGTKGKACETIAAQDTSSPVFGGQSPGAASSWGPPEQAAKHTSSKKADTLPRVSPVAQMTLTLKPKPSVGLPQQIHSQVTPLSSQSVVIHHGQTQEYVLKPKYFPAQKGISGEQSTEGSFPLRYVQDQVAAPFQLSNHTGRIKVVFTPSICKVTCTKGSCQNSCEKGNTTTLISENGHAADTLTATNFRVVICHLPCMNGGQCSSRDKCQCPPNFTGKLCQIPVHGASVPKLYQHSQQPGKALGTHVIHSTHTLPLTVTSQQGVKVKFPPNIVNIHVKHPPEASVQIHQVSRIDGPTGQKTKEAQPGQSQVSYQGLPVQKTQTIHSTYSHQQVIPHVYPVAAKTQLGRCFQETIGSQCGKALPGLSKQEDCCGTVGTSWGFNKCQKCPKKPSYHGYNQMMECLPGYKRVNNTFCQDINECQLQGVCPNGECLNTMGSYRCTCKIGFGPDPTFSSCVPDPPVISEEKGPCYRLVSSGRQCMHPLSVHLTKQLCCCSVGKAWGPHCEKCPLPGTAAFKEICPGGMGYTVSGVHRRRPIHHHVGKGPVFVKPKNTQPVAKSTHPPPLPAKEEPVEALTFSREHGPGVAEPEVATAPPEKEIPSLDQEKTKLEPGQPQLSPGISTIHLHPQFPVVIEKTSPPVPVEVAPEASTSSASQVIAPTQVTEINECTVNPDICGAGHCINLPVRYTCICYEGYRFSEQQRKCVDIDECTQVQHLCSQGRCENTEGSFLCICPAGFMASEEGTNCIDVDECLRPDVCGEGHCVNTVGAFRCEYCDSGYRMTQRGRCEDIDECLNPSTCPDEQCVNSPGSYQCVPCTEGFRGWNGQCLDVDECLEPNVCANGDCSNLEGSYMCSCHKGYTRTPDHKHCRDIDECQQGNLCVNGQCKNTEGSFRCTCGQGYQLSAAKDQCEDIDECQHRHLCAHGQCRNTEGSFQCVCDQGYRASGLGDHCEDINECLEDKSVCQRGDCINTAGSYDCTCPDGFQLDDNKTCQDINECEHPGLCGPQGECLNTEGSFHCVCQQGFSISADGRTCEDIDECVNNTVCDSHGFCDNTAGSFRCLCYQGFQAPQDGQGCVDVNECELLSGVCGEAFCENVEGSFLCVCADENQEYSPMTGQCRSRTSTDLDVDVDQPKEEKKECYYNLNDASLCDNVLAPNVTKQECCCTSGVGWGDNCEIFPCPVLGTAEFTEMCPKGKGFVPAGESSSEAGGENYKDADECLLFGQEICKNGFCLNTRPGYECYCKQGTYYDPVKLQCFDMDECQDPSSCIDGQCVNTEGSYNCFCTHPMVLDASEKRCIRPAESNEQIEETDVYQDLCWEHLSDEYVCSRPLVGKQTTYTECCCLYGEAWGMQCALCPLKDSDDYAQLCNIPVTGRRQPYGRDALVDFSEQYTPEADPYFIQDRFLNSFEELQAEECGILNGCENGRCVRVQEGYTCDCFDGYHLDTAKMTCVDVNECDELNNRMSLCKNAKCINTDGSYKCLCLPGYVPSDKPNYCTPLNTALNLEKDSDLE

B1: ADAMTS6 C-terminal region (domain or fragment)
chain: DGGWGPWSLWGECSRTCGGGVSSSLRHCDSPAPSGGGKYCLGERKRYRSCNTDPCPLGSRDFREKQCADFDNMPFRGKYYNWKPYTGGGVKPCALNCLAEGYNFYTERAPAVIDGTQCNADSLDICINGECKHVGCDNILGSDAREDRCRVCGGDGSTCDAIEGFFNDSLPRGGYMEVVQIPRGSVHIEVREVAMSKNYIALKSEGDDYYINGAWTIDWPRKFDVAGTAFHYKRPTDEPESLEALGPTSENLIVMVLLQEQNLGIRYKFNVPITRTGSGDNEVGFTWNHQPWSECSATCAGGVQRQEVVCKRLDDNSIVQNNYCDPDSKPPENQRACNTEPCPPEWFIGDWLECSKTCDGGMRTRAVLCIRKIGPSEEETLDYSGCLTHRPVEKEPCNNQSCPPQWVALDWSECTPKCGPGFKHRIVLCKSSDLSKTFPAAQCPEESKPPVRIRCSLGRCPPPRWVTGDWGQCSAQCGLGQQMRTVQCLSYTGQASSDCLETVRPPSMQQCESKCDSTPISNTEECKDVNKVAYCPLVLKFKFCSRAYFRQMCCKTCQGH
B1 was tested, and the Kd was 59 nM.
